Biological target: T1, dipeptidylpeptidase IV (DPPIV) expressed on rat proximal tubular epithelial cells (PTEC) (rat, UniProt P14740 1-767)
T1 construct: whole, on cells; also called K9/9 antigen; glycoprotein expressed on rat glomerular epithelial cells and PTEC
Test: in vivo biodistribution of 125I-labelled protein in rats, 48 h after tail vein injection
Experimental: Biodistribution studies were performed using standard procedures for determining tissue distribution of injected radiolabeled proteins (41, 33). […] After 48 h, a blood sample was taken, and major organs were removed, shredded, washed in PBS containing 10 mM EDTA, weighed, and counted. Targeting specificity was determined as percentage of cpm per gram of tissue divided by total injected cpm per gram of body weight.

T1 sequence (P14740 whole entry): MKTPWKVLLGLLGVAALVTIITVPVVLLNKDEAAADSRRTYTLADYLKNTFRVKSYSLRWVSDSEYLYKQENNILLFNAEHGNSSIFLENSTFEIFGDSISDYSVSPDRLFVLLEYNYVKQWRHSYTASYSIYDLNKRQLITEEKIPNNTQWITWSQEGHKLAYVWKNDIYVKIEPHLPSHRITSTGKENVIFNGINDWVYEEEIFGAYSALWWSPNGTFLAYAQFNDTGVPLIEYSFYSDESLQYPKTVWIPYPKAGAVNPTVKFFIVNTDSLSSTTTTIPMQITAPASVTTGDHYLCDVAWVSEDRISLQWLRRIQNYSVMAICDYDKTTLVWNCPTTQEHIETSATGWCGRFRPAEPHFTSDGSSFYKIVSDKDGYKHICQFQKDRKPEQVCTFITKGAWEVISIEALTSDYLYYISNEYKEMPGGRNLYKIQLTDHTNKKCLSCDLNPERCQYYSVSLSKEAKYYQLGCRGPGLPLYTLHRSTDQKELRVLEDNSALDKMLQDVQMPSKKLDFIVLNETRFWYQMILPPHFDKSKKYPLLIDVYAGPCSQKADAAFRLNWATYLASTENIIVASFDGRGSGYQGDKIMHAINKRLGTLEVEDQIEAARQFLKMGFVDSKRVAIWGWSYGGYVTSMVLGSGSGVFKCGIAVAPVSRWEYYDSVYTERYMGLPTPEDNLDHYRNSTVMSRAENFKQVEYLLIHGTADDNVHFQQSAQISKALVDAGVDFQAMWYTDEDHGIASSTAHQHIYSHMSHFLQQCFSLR

B1: soluble untargeted Crry (sCrry) (other, rat, UniProt Q63135 36-482, looked up)
chain: GQCPAPPLFPYAKPINPTDESTFPVGTSLKYECRPGYIKRQFSITCEVNSVWTSPQDVCIRKQCETPLDPQNGIVHVNTDIRFGSSITYTCNEGYRLIGSSSAMCIISDQSVAWDAEAPICESIPCEIPPSIPNGDFFSPNREDFHYGMVVTYQCNTDARGKKLFNLVGEPSIHCTSIDGQVGVWSGPPPQCIELNKCTPPHVENAVIVSKNKSLFSLRDMVEFRCQDGFMMKGDSSVYCRSLNRWEPQLPSCFKVKSCGAFLGELPNGHVFVPQNLQLGAKVTFVCNTGYQLKGNSSSHCVLDGVESIWNSSVPVCEQVICKLPQDMSGFQKGLQMKKDYYYGDNVALECEDGYTLEGSSQSQCQSDASWDPPLPKCVSQVICKLPQDMSGFQKGLQMKKDYYYGDNVALECEDGYTLEGSSQSQCQSDASWDPPLPKCVSRSNSG
modifications: 125I-iodinated in the biodistribution study
notes: extracellular domain; Untargeted control, expressed in Pichia; also called soluble Crry
  binding result: no binding
